Molecular target: RPN13 pru domain (Arabidopsis thaliana) (UniProt O48726)
Assay: ITC

Chain of UniProt O48726 (O48726 9-121): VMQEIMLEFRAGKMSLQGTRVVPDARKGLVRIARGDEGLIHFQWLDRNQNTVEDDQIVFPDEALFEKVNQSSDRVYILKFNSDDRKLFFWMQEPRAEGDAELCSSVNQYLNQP

For “TTOP UBL domain (from UniProt F4K1H0 1-879) (domain or fragment)”, which Kd is on record?
The Kd was 29 µM.

And the stoichiometry N?
Its stoichiometry N is 1.

Reference: article doi:10.1101/2023.01.07.523072
